# Assay results as given in patent US20120171723A1.
# Target: human zFGF5 (FGF homolog polypeptide) (human) (UniProt O76093)
# Assay: cell-based or functional assay
# Chain of human zFGF5 (FGF homolog polypeptide) (human) (O76093 28-207): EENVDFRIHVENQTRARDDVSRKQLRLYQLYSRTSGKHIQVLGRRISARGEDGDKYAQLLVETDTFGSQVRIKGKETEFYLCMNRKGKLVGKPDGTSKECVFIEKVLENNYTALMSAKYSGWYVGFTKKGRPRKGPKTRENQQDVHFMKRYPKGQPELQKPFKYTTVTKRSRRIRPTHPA
Cell Proliferation (percent of control) at 0 fold-excess of soluble receptor (percent of control),Cell Proliferation (percent of control) at 0.8 fold-excess of soluble receptor (percent of control),Cell Proliferation (percent of control) at 1.6 fold-excess of soluble receptor (percent of control),Cell Proliferation (percent of control) at 3.2 fold-excess of soluble receptor (percent of control),Cell Proliferation (percent of control) at 6.3 fold-excess of soluble receptor (percent of control),Cell Proliferation (percent of control) at 12.5 fold-excess of soluble receptor (percent of control),Cell Proliferation (percent of control) at 25 fold-excess of soluble receptor (percent of control),Cell Proliferation (percent of control) at 50 fold-excess of soluble receptor (percent of control),Cell Proliferation (percent of control) at 100 fold-excess of soluble receptor (percent of control),Cell Proliferation (percent of control) at 62.5 fold-excess of soluble receptor (percent of control),Cell Proliferation (percent of control) at 125 fold-excess of soluble receptor (percent of control),Cell Proliferation (percent of control) at 250 fold-excess of soluble receptor (percent of control),Cell Proliferation (percent of control) at 500 fold-excess of soluble receptor (percent of control),Cell Proliferation (percent of control) at 1000 fold-excess of soluble receptor (percent of control),Substance
100,85,66,37,5,1,0.2,0,0,–,–,–,–,–,FGFR3α-IIIc/Fc soluble receptor (Fc fusion)
100,–,–,–,–,–,–,–,–,101,90,91,101,99,FGFR2α-IIIb/Fc soluble receptor (from UniProt P21802 22-378) (Fc fusion)
